Experimental data: IntAct's records for PubMed 19860830

B1: Casein kinase I isoform alpha (Oryctolagus cuniculus (Rabbit)), P67828 (parent)
chain: MASSSGSKAEFIVGGKYKLVRKIGSGSFGDIYLAINITNGEEVAVKLESQKARHPQLLYESKLYKILQGGVGIPHIRWYGQEKDYNVLVMDLLGPSLEDLFNFCSRRFTMKTVLMLADQMISRIEYVHTKNFIHRDIKPDNFLMGIGRHCNKLFLIDFGLAKKYRDNRTRQHIPYREDKNLTGTARYASINAHLGIEQSRRDDMESLGYVLMYFNRTSLPWQGLKAATKKQKYEKISEKKMSTPVEVLCKGFPAEFAMYLNYCRGLRFEEAPDYMYLRQLFRILFRTLNHQYDYTFDWTMLKQKAAQQAASSSGQGQQAQTPTGF
partner: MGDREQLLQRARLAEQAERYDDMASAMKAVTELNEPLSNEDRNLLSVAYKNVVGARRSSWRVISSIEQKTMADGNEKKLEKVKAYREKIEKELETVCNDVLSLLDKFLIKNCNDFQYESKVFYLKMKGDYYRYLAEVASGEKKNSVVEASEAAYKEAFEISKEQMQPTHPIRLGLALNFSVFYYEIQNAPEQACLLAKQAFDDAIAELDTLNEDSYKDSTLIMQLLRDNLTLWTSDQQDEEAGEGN

Variants of: B1
Conditions: with 1433f_human YWHAH

| effect of a mutation on the interaction | Variant |
| --- | --- |
| disrupting interaction | S242A |
| disrupting interaction | S218A |

Variants of: B1
Conditions: with 1433f_human YWHAH
Remark: another data set of the same source

| effect of a mutation on the interaction | Variant |
| --- | --- |
| decreasing interaction | S218A |
